Target: WI/05 HA1 monomer (Influenza A virus …, UniProt Q0PED2, strain)
Test: ELISA
Settings: both partners purified

B1: mAb #1664 (antibody, V domains shown)
VH: EVQVMQSGAEARMTGATVKISCKASGYTFSDYFLHWVKQAPGKGLEWMGLVDVDNGEVRYAEKFQGRVTITADTSTETAYLEMTTVTSGDTAVYYCASTTPRGGNPSVYNYFFVDVWGKGTTVTVSS
VL: QPVLTQSSSASASLGSSVKLTCTLSSGHDNYIIAWHQQQPGKAPRYLMQVGAGGTYNKGSGVPHRFSGSSSGADRYLTISNLQSDDEADYYCETWDSKTVFGGGTTLTVL
notes: also called private mAb; H3-specific mAb; source: HEK 293F cells, transfected (GenScript), conditioned media; purified
binding result: no binding (tested: 20 μg/mL)

From article PMC7899375 (PLoS ONE, 2021)
